The record followed here is PMC2191257.

In the series the target is t-Elf-1 (truncated Elf-1) (UniProt P32519 108-304). The series can be described thus: EMSA. In general terms: In EMSA bound probe runs differently from free probe, usually more slowly.
Sequence of t-Elf-1 (truncated Elf-1) (P32519 108-304): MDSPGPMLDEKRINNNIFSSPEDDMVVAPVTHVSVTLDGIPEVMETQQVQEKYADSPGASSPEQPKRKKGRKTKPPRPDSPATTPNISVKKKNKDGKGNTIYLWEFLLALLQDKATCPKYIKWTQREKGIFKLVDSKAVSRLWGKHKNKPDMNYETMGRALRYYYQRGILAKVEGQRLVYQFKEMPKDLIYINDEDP

B1: MSV LTR (dsDNA)
DNA 1: TCGGAGACGGAAGCGCGC
DNA 2: GCGCGCTTCCGTCTCCGA
With B1, the binding result is listed as “binds”.
